In assay [1] the test system is collagen-antibody induced arthritis. The assay is described as follows: collagen-antibody induced arthritis model. The class given is in vivo, C57BL6J male mice. On the procedure:
C57BL6J male mice were injected intraperitoneally with a cocktail of arthritogenic anti-type II collagen (2 mg/mouse) at day 0. At day 3, mice received an injection of lipopolysaccharide from bacterial cells walls of E. coli 055: B5. The severity of arthritis was evaluated every other day on each paw with a score from 0 to 4, for a maximal score of 16 by animal (0=normal joint, 1=moderate redness and slight swelling or swelling of one or two digits, 2=moderate redness and moderate paw swelling or swelling more than three digits, 3=redness and swelling from tarsal joints to metatarsal joints, 4=severe redness and severe swelling of the entire paw). Hindpaw swelling was measured at the same time by plethysmography. Paw volume determined prior to disease induction was used as the baseline. The development of arthritis was analyzed by histological assessment. Hindpaws were dissected then fixed in 4% formalin (Labonord). Hindpaws were further decalcified in 10% EDTA for 1 month and embedded in paraffin blocks. Five μm-thick tissue sections were cut and two stainings were performed, hematoxylin, eosin and toluidine blue. Histological examination was carried out blindly by three independent observers. Synovium from ankle joint was graded on a scale of 0 to 3 (with 0=normal and 3=major changes) for synovial hyperplasia (width of lining layer) and tissue cell infiltration. […]

The nature of assay [2]: AADAT activity test (transformation of KYNU into KYNA and XANA). The class given is biochemical. The following applies: 15 min in the presence of KYNU (1000 μM), FIG. 3F. On the procedure: The activity test is based on the disappearance of kynurenine and 3-hydroxykynurenin which are substrates of AADAT. A reaction mixture (50 μL final volume) containing 10 mM L-kynurenine or 3-hydroxykynurenin, 2 mM α-oxoglutarate, 40 μM PLP (pyridoxal 5′-phosphate) and 0 or 1 μL of the purified protein sample prepared in buffer 100 mM potassium phosphate (pH 7.4). Then, the mixture was incubated at 37° C. for 15 min, and the reaction was stopped by the addition of an equal volume of 30% acetic acid. The supernatant of the reaction mixture, obtained by centrifugation at 3000 g for 10 min at 4° C., was mixed equally with Ehrlich's solution and incubated 15 min at room temperature to have a colorimetric reaction. In parallel, a standard range of kynurenine or 3-hydroxykynurenin from 0 μM to 1000 μM was made under the same conditions. The amount of kynurenine or 3-hydroxykynurenin present in the sample was measured with a spectrophotometer at an OD of 492 nm and calculated using the standard range (FIG. 3E). A verification of the production of KYNA and XANA in vitro via the action of our enzyme during 15 min in the presence of KYNU (1000 μM) was carried out (FIG. 3F).

B1: AADAT: Recombinant murine alpha-aminoadipate aminotransferase (SEQ ID NO:13) produced in E. coli and purified by affinity chromatography (protein, listed as Mus musculus)
chain: MNYSRFLTATSLARKPSPIRTTADILSKAPKTLISLAPGSPNPSMFPFKSAAFTVENGSTIRFEDDLIKRALQYSPSYGIPELLSWLKQFQVKLHNPPTVNYPPNQGQMDLCITSGCQDGLCKAFEMLINPGDTILVNEPLFPGTLYAMKPLGCNIINVPSDEHGIIPEGLKKILSQWKPEDSKDPTKKTPKFLYTVPNGNNPTGNSLTGDRKKEIYELARKYDFLIIEDDPYYFLQFSKPWEPTFLSMDVDGRVIRADTFSKTVSSGLRVGFMTGPKTLIQNIVLHTQVSSVHACTLSQLMILQLLHQWGEEGFLAHIDRTIDFYKNQRDSILAAADKWLRGLAEWHVPKAGMFLWIKVKGISDTKQLIEEKAIEREVLLVPGNGFFIDGSAPTSFFRASFSLATPAQMDTAFQRLAQLIKESL
For B1, the arthritis severity result in assay [1] (daily i.p. recombinant AADAT ~50 μg/d vs vehicle, confirmed by oedema swelling measure and histology (FIG. 4)) is reported as “drastically reduced”. Besides, the “maximal clinical score mean” value in assay [1] (score 0 to 4 per paw, maximal 16 by animal, daily i.p. recombinant AADAT ~50 μg/d, 2 experiments, 8 mice per group, vehicle 6.9) is on record as 2.6. The “transformation of KYNU into KYNA and XANA in vitro” value in assay [2] is “dose effect can be observed”.
